For orientation: stoichiometry N means the number of molecules, sites or subunits per partner or assembly.

One series addresses T1, C. apon LDH (Cyanobacterium aponinum, UniProt K9Z684).
T1 sequence (K9Z684 1-331): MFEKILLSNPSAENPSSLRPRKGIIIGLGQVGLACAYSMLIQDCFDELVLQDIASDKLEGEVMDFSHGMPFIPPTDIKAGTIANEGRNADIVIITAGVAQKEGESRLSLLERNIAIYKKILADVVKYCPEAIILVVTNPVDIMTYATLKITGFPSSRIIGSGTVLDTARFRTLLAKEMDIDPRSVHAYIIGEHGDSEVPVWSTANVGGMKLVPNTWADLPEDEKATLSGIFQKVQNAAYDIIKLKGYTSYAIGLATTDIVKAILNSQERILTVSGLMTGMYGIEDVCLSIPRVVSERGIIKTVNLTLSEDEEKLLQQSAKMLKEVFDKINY
The series is described as follows: X-ray crystal structure of complex. The class given is binding. The settings on record: 2 mM each.

In series [1] the target is Y190W C. apon LDH (Cyanobacterium aponinum). The series is described as follows: AUC.
The series “SEC-MALS” concerns the molecule itself. Description: SEC-MALS. On the technique in general: In gel filtration, larger molecules generally elute earlier.

As for `NC(=O)C(=O)O` [oxamate], the “X-ray crystal structure of complex” value at C. apon LDH (active site, substrate analogue, with NADH and FBP) was “active sites of each monomer occupied with a NADH and an oxamate molecule”. Turning to Y190W C. apon LDH (enzyme), in series [1], the stoichiometry N was 4.

As for `NC(=O)C1=CN([C@@H]2O[C@H](COP(=O)(O)OP(=O)(O)OC[C@H]3O[C@@H](n4cnc5c(N)ncnc54)[C@H](O)[C@@H]3O)[C@@H](O)[C@H]2O)C=CC1` [NADH], at C. apon LDH (cofactor site, with oxamate and FBP), the “X-ray crystal structure of complex” value is “active sites of each monomer occupied with a NADH and an oxamate molecule”.

B1: ΔN-ter C. apon LDH (N-terminal sequence … deleted) (domain or fragment, Cyanobacterium aponinum, UniProt K9Z684 21-331, looked up)
chain: RKGIIIGLGQVGLACAYSMLIQDCFDELVLQDIASDKLEGEVMDFSHGMPFIPPTDIKAGTIANEGRNADIVIITAGVAQKEGESRLSLLERNIAIYKKILADVVKYCPEAIILVVTNPVDIMTYATLKITGFPSSRIIGSGTVLDTARFRTLLAKEMDIDPRSVHAYIIGEHGDSEVPVWSTANVGGMKLVPNTWADLPEDEKATLSGIFQKVQNAAYDIIKLKGYTSYAIGLATTDIVKAILNSQERILTVSGLMTGMYGIEDVCLSIPRVVSERGIIKTVNLTLSEDEEKLLQQSAKMLKEVFDKINY
Take B1: the “stoichiometry N” value in “SEC-MALS” worked out at 2.

B2: Cyanobacterium aponinum lactate dehydrogenase, wild type (enzyme)
chain: T1 sequence (K9Z684 1-331)
On to B2, for which the “stoichiometry N” value in “SEC-MALS” is 4.

For the origin of these results see article PMC10583557 (Molecular Biology and Evolution, 2023).
